Substitutions are numbered along the chain they refer to.
T1: human ST2 (hST2, Interleukin-1 receptor-like 1 isoform A) on cells (human, UniProt Q01638 19-556)
T1 sequence: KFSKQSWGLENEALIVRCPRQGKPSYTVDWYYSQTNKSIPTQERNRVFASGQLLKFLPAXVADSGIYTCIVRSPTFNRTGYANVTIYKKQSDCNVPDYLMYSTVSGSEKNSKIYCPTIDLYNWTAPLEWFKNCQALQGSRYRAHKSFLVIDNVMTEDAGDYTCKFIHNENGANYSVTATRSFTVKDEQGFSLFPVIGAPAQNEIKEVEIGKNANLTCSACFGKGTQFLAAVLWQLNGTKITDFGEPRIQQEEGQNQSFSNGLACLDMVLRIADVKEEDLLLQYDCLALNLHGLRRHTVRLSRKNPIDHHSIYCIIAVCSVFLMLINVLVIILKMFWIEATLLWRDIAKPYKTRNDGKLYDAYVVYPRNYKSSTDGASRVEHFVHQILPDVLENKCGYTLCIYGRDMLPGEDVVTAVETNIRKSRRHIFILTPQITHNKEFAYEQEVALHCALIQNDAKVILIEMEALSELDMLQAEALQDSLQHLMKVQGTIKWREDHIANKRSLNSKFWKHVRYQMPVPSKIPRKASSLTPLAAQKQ

T2: recombinant protein containing hST2 extracellular domain with mouse antibody heavy chain Fc tag (hST2-ECD-mFc) (human)
T2 construct: Used for SPR and for ELISA of chimeric and humanized antibodies; also called human ST2 antigen
T2 chain: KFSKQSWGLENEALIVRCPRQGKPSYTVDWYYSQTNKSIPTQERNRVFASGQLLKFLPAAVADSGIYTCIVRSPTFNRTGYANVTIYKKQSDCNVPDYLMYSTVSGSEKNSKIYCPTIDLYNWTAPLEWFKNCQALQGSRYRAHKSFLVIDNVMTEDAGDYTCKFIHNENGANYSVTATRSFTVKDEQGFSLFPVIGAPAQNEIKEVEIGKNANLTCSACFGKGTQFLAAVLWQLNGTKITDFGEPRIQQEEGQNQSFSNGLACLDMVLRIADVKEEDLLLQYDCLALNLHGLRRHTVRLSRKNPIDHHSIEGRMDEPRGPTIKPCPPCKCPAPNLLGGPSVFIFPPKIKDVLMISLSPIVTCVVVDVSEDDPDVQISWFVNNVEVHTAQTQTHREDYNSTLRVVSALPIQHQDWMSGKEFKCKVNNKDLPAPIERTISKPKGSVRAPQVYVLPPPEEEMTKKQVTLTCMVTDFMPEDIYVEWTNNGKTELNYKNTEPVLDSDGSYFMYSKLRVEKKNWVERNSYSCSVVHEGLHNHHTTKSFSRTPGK

B1: RG6149 (antibody Ab2 in CN104334582, prepared in-house) (antibody, human IgG2, kappa, V domains shown)
VH: EVQLVQSGAEVKKPGESLKISCKGSGYSFTNYWIGWVRQMPGKGLEWMGIIYPGNSDTRFSPSFQGQVTISADKSITTAYLQWSSLKASDTAMYYCARHGTSSDYYGLDVWGQGTTVTVSS
VL: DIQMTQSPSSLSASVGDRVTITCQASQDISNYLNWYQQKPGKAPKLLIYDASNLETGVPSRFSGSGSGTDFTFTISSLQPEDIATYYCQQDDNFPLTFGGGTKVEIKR
notes: Control anti-ST2 antibody
B2: GSK3772847 (antibody STLM208 in CN104411333, prepared in-house) (antibody, human IgG2, kappa, V domains shown)
VH: EVQLLESGGGLVQPGGSLRLSCAASGFTFSIYDMIWVRQAPGKGLEWVSSIRGEGGGTYYADSVKGRFTISRDNSKNTLYLQMNSLRAEDTAVYYCARDPWSTEGSFFVLDYWGQGTLVTVSS
VL: EIVLTQSPATLSLSPGERATLSCRASQSVDDDLAWYQQKPGQAPRLLIYDASNRATGIPARFSGSGSGTDFTLTISSLEPEDFAVYYCQQYITAPLTFGQGTKVEIKR
notes: Control anti-ST2 antibody
B3: Chimeric 31C8 (antibody, human IgG2, kappa, V domains shown)
VH: QVQLQQSGPELVRPGASVTLSCKASGYIFIDSEMHWVKQTPVHGLEWIGAIDPETGDTVYNQKFKGKATLTADKSSSTASMELSSLTSEDSAVYYCTGSTTDYYFAYWGQGTTLTVSS
VL: DIVMTQAAFSNPVTLGTSASISCRSSKSLLHSNGIIYLYWYLQKPGQSPQLLIYQMSNLASGVPDRFSSSGSGTDFTLRISRVEAEDVGVYYCAQNLELPFTFGSGTKLEIKR
notes: also called xi31C8
B4: Humanized 31C8-1.1 (antibody, human IgG2, kappa, V domains shown)
VH: EVQLVQSGAEVKKPGATVKISCKASGYIFIDSEMHWVQQAPGKGLEWMGAIDPETGDTVYAEKFQGRVTITADKSSSTAYMELSSLRSEDTAVYYCTGSTTDYYFAYWGQGTLVTVSS
VL: DIQMTQSPSSLSASVGDRVTITCRSSKSLLHSNGIIYLYWYQQKPGKAPKLLIYQLSNLASGVPSRFSSSGSGTDFTLTISSLQPEDFATYYCAQNLELPFTFGQGTKVEIKR
notes: also called hz31C8-1.1; hz31C81-1.1
B5: Humanized 31C8-1.2 (antibody, human IgG2, kappa, V domains shown)
VH: B4 VH with E1Q, E10K, E62K, Q65K
VL: B4 VL
notes: also called hz31C8-1.2; hz31C81-1.2
B6: Chimeric 26A1 (antibody, human IgG2, kappa, V domains shown)
VH: B3 VH with P9A, G26D, I30T, M34I, P41L, V59A, S80Y, D90G, T97S, Y103C
VL: B3 VL
notes: also called xi26A1
B7: Chimeric 7D1 (antibody, human IgG2, kappa, V domains shown)
VH: QVQLQQSGAELVRPGASVTLSCKASGYTFTDYEMHWVKQTPVHGLDWIGTIDPETGDTAYNQKFKGRATLTADKSSSTAYMELSSLTSEDSAVYYCTRYSYTNSPYGMDYWGQGTSVTVSS
VL: DVVMTQTPKFLLVSAGDRVTITCKASQSVSNDVAWYQQKPGQSPKLLIYYASNRYTGVPDRFTGSGYGTDFTFTINTVQAEDLAVYFCQQDYSSPYTFGGGTKLEIKR
notes: also called xi7D1
B8: Chimeric 3C6 (antibody, human IgG2, kappa, V domains shown)
VH: QVQLQQSGAEVVRPGASVTLSCKASDYTITDYEMHWVKQTPVHGLEWIGAIDPETGDTAYSQNFKGKATLTADESSSTAYMELSSLTSEDSAVYYCSRSATDYYFASWGQGTTLTVSS
VL: B3 VL with F9I, I21M, I36T, Q47H, R79K
notes: also called xi3C6

What follows are binders tested against T1, human ST2 (hST2, Interleukin-1 …) (assay: cell-based or functional assay).

| Binder | IC50, blocking of the IL33/ST2 signaling (NFκB luciferase reporter, HEK293T-hST2-NFκB-Luciferase cells) [nM] | IC50, blocking of the IL33/ST2 signaling (NFκB luciferase reporter, KU812-NFκB-Luciferase cells naturally expressing hST2, 200 pM hIL33) [nM] |
| --- | --- | --- |
| B1 | 84.3 | 0.047 |
| B2 | 29.2 | 0.111 |
| B3 | 15.6 | 0.016 |
| B4 | 15.9 | 0.008 |
| B5 | 20.4 | 0.006 |

Target: T2, recombinant protein containing hST2 …
Experiment: ELISA, plate coated with hST2-ECD-mFc, antibody heated at 72 °C for 5 min
Procedure: (§1) The anti-ST2 antibodies were diluted with PBS buffer to a concentration of 1.5 mg/mL. After being treated at 72° C. for 5 min, the samples were assayed by ELISA for their binding activity for an antigen The ELISA procedure is as follows: A 96-well plate was coated with 2 µg/mL hST2-ECD-mFc as the antigen at 100 µL/well and incubated at 4° C. overnight. After the antigen not adsorbed was well washed off, the non-specific binding sites were blocked with a blocking buffer (PBST containing 1% bovine serum albumin). After the plate was washed three times with a washing buffer (PBST, PBS containing 0.05% (v/v) Tween 20), the anti-ST2 antibodies (serially diluted 3-fold from an initial concentration of 1.5 µg/mL to 8 concentrations) were added at 100 µL/well, and the plate was incubated at 37° C. for 1 h. […] After the plate was incubated at room temperature for 5 min, a stop solution (2 N H₂SO₄) was added to stop the reactions. The signals were read at 450 nm using a plate reader (PE, Envision). The data were analyzed using GraphPad Prism5, and the EC₅₀ values were calculated.

| Binder | EC50 [nM] |
| --- | --- |
| B2 | 0.188 |
| B3 | 0.0863 |
| B4 | 0.0968 |
| B5 | 0.11 |

Each binder was assayed against T1, human ST2 (hST2, Interleukin-1 …) (assay: flow cytometry on HEK293T-hST2-NFκB-Luciferase cells).
Procedure: 3 × 10⁵ HEK293T-hST2-NFκB-Luciferase or HEK293T-Cyno-ST2-NFκB-Luciferase cells were added to a 96-well culture plate. Serially diluted anti-ST2 antibodies (serially diluted 4-fold from an initial concentration of 667 nM to 8 concentrations in binding assays with the HEK293T-hST2-NFκB-Luciferase cells; serially diluted 4-fold from an initial concentration of 400 nM to 8 concentrations in binding assays with the HEK293T-Cyno-ST2-NFκB-Luciferase cells) were added to the cell suspensions. After the plate was incubated at room temperature for 60 min, the cells were washed 3 times with PBS. […] The cells were washed 3 times with PBS and resuspended in 100 µ1L of PBS, and then the fluorescence signals were analyzed and detected using a flow cytometer (BD, Accuri C6). The binding capacity of the anti-ST2 antibodies to hST2 and cyno-ST2 on the cell line surfaces was measured in terms of the mean fluorescence intensity (MFI) of staining. The data were analyzed using GraphPad Prism5, and the EC₅₀ values were calculated. The EC₅₀ values for the binding of the anti-ST2 chimeric antibodies to hST2 and Cyno-ST2 at the cellular level are shown in Table 8 and FIGS. 7-8.
The humanized antibodies hz31C81-1.1 (the amino acid sequence of the heavy chain set forth in SEQ ID NO: 75 and the amino acid sequence of the light chain set forth in SEQ ID NO: 81) and hz31C8-1.2 (the amino acid sequence of the heavy chain set forth in SEQ ID NO: 77 and the amino acid sequence of the light chain set forth in SEQ ID NO: 81) were subjected to affinity, binding, blocking and cell function analyses using the methods described in Example 4, Example 5, Example 6, Example 7, Example 8, Example 9 and Example 10. In the present disclosure, “hz” and “xi” denote humanized antibodies and chimeric antibodies, respectively; for example, “hz31C81-1.1” and “hz31C81-1.2” represent humanized 31C81-1.1 and 31C81-1.2 antibodies, and “xi31C8” represents a chimeric 31C8 antibody.

| Binder | EC50 [nM] |
| --- | --- |
| B1 | 0.581 |
| B2 | 0.676 |
| B3 | 0.405 |
| B4 | 0.384 |
| B5 | 0.468 |

Target: T2, recombinant protein containing hST2 …
Experiment: ELISA, plate coated with hST2-ECD-mFc, antibody heated at 72 °C for 5 min; antibody heated at 72° C. for 5 min (Heated column, not the unheated 0.1428 nM)
Procedure: as §1

| Binder | EC50 [nM] |
| --- | --- |
| B1 | 1.06 |

Target: T1, human ST2 (hST2, Interleukin-1 …)
Experiment: cell-based or functional assay
Remark: another data set of the same source

| Binder | IC50, blocking of the IL33/ST2 signaling (NFκB luciferase reporter, HEK293T-hST2-NFκB-Luciferase cells, 50 pM hIL33 protein SEQ ID NO: 8) [nM] |
| --- | --- |
| B1 | 11.9 |
| B3 | 2.53 |
| B6 | 7.57 |
| B7 | 0.12 |
| B8 | 0.673 |

Source: US20230272086A1 (CHIA TAI TIANQING PHARMACEUTICAL GROUP, published 2023)
